Usually Km stands for the substrate concentration at which the rate is half of its maximum. As usually defined, the Vmax is the top rate of the reaction or transport when substrate is in excess.

Km and Vmax data for one protein are collected here from publication PMC2919377, “A Nuclear Family A DNA Polymerase from Entamoeba histolytica Bypasses Thymine Glycol” (PLoS Neglected Tropical Diseases, 2010).

Assay in all cases: purified protein
Type in all cases: biochemical, Entamoeba histolytica
Common to all, as to settings: opposite cognate template base, primer-template DNA, optimised buffer (Mg2+ optimum 2.5 mM, pH optimum 7.5), 37 °C

Substrate in data set [1]: Cc1cn([C@H]2C[C@H](O)[C@@H](COP(=O)(O)OP(=O)(O)OP(=O)(O)O)O2)c(=O)[nH]c1=O
Substrate in data set [2]: Nc1nc2c(ncn2[C@H]2C[C@H](O)[C@@H](COP(=O)(O)OP(=O)(O)OP(=O)(O)O)O2)c(=O)[nH]1
Substrate in data set [3]: Nc1ccn([C@H]2C[C@H](O)[C@@H](COP(=O)(O)OP(=O)(O)OP(=O)(O)O)O2)c(=O)n1
Substrate in data set [4]: Nc1ncnc2c1ncn2[C@H]1C[C@H](O)[C@@H](COP(=O)(O)OP(=O)(O)OP(=O)(O)O)O1

B1: EhDNApolA (Entamoeba histolytica HM-1:IMSS) (protein)
chain: MEKTPRNSVDDLLMLFEDVKDNNKPVDYTKLESEETKKTENKERRKSLSINVNDEIPEKRKRKSIKQEGTPQPKVGAVFEIQYQHLPNKIDISELKELLEKIPKMEGKIMFNEKNLEQSIVINCTNNGIHALIGNSYVVLKKELLPEIINSRRLIIVYNLMEEIKNYRNNIKCILENFNTNNTIFDTYIGASTIDPGSVDGKTFSQICLVYEVIINKSTIEERLKQTRRLAVKEVEVMNNDNMIKVFQEQEMIIDGVLIEMNYCNEFKIDNKLLNEQRKKLIEEQHKIEMETKKIIGRTINLSSPEQVKKELIRFNIGIDGIKKKATTDKKILSQSDHPFAKLVLEYRKISKLLSGVIEQIRKCCIKSGDEYFIRTTWSQTAIVTGRIQSKSPNLQQIPKQSFSLPQCLIIPRDLFITHNNNTFVAIDYNQIELRILADFTKDHHLIEFFKSNTDVHRLIAAHWLKKNVNDITDDERRKAKTIVYGCIYGIGPFSLADQLHVSLDESKAFLESFLDQFPAFKKWKEETITNASTTGFVHTINNRRRRINNLTDCNDKKTVAESKRIAVNSPIQGTAADIIKMCMIEIFKKLHSSWVGVQLLLNIHDEIVLEVPDHLLDEVCVTLKHLMEHIVKLEVPLVVTVETGKKWGSLHPYNLN
notes: full-length ORF, 657 aa, about 75 kDa, N-terminal 6-His tag (pCOLD I), expressed in E. coli BL21 DE3-Rosetta II; Ni-NTA and phosphocellulose
Regarding B1, the Km was 1.49 ± 0.3 µM in the data set “purified protein [1]”, 1.56 ± 0.2 µM in the data set “purified protein [2]”, 2.1 ± 0.3 µM in “purified protein [3]” and 2.3 ± 0.2 µM in the data set “purified protein [4]”. The Vmax in the data set “purified protein [1]” is 0.0029 µmol/min; in the data set “purified protein [2]”, 0.0035 µmol/min; in “purified protein [3]”, 0.0032 µmol/min; in the data set “purified protein [4]”, 0.0033 µmol/min.
